Laboratory results reported in patent US20200002415A1 (published 2020).

T1: human FcγRIIA 131R on blood cells of 131R/R donors (human, UniProt P12318 34-317)
T1 chain: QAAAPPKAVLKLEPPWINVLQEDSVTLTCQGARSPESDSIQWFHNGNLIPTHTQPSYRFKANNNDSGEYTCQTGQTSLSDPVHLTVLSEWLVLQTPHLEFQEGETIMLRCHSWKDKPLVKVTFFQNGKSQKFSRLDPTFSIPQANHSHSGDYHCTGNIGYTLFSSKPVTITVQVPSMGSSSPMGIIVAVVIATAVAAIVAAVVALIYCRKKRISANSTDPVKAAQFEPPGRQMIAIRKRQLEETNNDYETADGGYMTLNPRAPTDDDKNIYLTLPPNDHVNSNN

T2: Recombinant FcγRIIA-131H/H allotype (generated at MedImmune) (human, UniProt P12318 34-217, limits assumed)
T2 construct: ELISA coating protein; also called human FcγRIIA; CD32A
T2 sequence: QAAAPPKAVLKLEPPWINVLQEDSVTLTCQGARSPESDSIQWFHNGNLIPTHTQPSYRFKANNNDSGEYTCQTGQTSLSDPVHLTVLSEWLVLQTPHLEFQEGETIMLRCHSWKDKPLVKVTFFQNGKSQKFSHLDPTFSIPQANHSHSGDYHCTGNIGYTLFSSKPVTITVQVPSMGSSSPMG


Tests used:
[1] = target: T1, human FcγRIIA 131R on blood cells of …; assay: cell-based or functional assay
[2] = target: T2, Recombinant FcγRIIA-131H/H allotype …; assay: ELISA on coated recombinant FcγRIIA-131H/H
Method: Plates were washed five times with 200 μl of wash buffer (PBS containing 0.1% Tween 20), blocked with blocking buffer containing 5% milk in PBS for 1 hour at room temperature, and washed five additional times with wash buffer. Three-fold serial dilutions of the test antibody or control antibody (R347-Tm) were added to wells in duplicate. Plates were incubated for 2 hours at room temperature, and washed five times with wash buffer. Binding of the antibodies to the FcγRs was detected by adding 50 μl of goat anti-human Fc-HRP (Jackson ImmunoResearch Laboratories, PA) to the wells and incubating for 1 hour at room temperature, washing 10 times, and adding 50 μl TMB substrate (Pierce Biotechnology, MA). The color reaction was stopped with 50 μl 0.2M […] and the absorbance was measured using a spectrophotometer (Molecular Devices, CA) at […].

| Binder | EC50 of FcγRIIA internalization from the monocyte surface, whole blood FACS assay [1] [pM] | binding result [2] |
| --- | --- | --- |
| 32LO0350 (antibody, human IgG1, V domains shown, expressed as human IgG1-TM with human kappa light chain; also called optimized IV.3 clone 32LO0350) VH: QVQLVQSGAEVKKPGASVKVSCKASGYTFTNYGMNWVRQAPGQRLEWMGWLNTYTGESWYPDDFKGRVTITRDTSASTAYMELSSLRSEDTAVYYCARGDYGYDDPLDYWGQGTLVTVSS VL: DIVMTQSPLSLPVTPGEPASISCRSSKSLLHTNRNTYLHWFLQKPGQSPQLLIYRMSVLASGVPDRFSGSGSGTDFTLKISRVEAEDVGVYYCMQHLEYPLTFGQGTKLEIK |  | binds |
| 32LO0354 (antibody, human IgG1, V domains shown, expressed as human IgG1-TM with human kappa light chain; also called optimized IV.3 clone 32LO0354) VH: QVQLVQSGAEVKKPGASVKVSCKASGYTFTNYGMNWVRQAPGQRLEWMGWLNTYTGESYYPDDFKGRVTITRDTSASTAYMELSSLRSEDTAVYYCARGDYGYDDPLDYWGQGTLVTVSS VL: DIVMTQSPLSLPVTPGEPASISCRSSKSLLHTNRNTYLHWFLQKPGQSPQLLIYRMSVLASGVPDRFSGSGSGTDFTLKISRVEAEDVGVYYCMQHLEYPLTFGQGTKLEIK |  | binds |

More lines, now with the values ahead:

| EC50 of FcγRIIA internalization from the monocyte surface, whole blood FACS assay [1] [pM] | binding result [2] | Binder |
| --- | --- | --- |
| 200 |  | chimeric IV.3 (human IgG1-TM) (antibody, V domains shown) VH: QIQLVQSGPELKKPGETVKISCKASGYTFTNYGMNWVKQAPGKGLKWMGWLNTYTGESIYPDDFKGRFAFSSETSASTAYLQINNLKNEDMATYFCARGDYGYDDPLDYWGQGTSVTVSS VL: DIVMTQAAPSVPVTPGESVSISCRSSKSLLHTNGNTYLHWFLQRPGQSPQLLIYRMSVLASGVPDRFSGSGSGTAFTLSISRVEAEDVGVFYCMQHLEYPLTFGAGTKLELK |
|  | binds | 32LO0355 (antibody, human IgG1, V domains shown, expressed as human IgG1-TM with human kappa light chain; also called optimized IV.3 clone 32LO0355) VH: QVQLVQSGAEVKKPGASVKVSCKASGYTFTNYGMNWVRQAPGQRLEWMGWLNTYTGESWYPDDFKGRVTITRDTSASTAYMELSSLRSEDTAVYYCARGDYGYDDPLDYWGQGTLVTVSS VL: DIVMTQSPLSLPVTPGEPASISCRSSKSLLHTNKNTYLHWFLQKPGQSPQLLIYRMSVLASGVPDRFSGSGSGTDFTLKISRVEAEDVGVYYCMQHLEYPLTFGQGTKLEIK |
